In the supplement of paper PMC9233669:
This sample holds only a part of the variants without activity.

What was measured:
biotinyl-Met-oxazolone = experiment: self-aminoacylation, catalytic enhancement (BMO) (fold over background); higher = more active; k-Seq, kA / k0A0; sequences stand for … in GGGAAUGGAUCCACAUCUACGAAUUC…UUCACUGCAGACUUGACGAAGCUG
Outline: (§1)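 The uncatalyzed rate is the low-activity peak of a bimodal Gaussian fit, and catalytic enhancement is median kA divided by it. The kA values came from pseudo-first-order fits, with 1000 bootstraps, of per-sequence fraction reacted measured by streptavidin capture, triplicate qPCR and Illumina sequencing. Mutagenized RNA pools with a 21-nt variable region (0.43 μM) were reacted with each biotinyl-aminoacyl-oxazolone at 2–1250 μM in 50 μL HEPES/NaCl/KCl/MgCl2/CaCl2 buffer with 5% acetonitrile, pH 6.9–7.0, for 90 minutes at room temperature.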

biotinyl-Trp-oxazolone = experiment: self-aminoacylation, catalytic enhancement (BWO) (fold over background); higher = more active; k-Seq, kA / k0A0; sequences stand for … in GGGAAUGGAUCCACAUCUACGAAUUC…UUCACUGCAGACUUGACGAAGCUG
Outline: as §1

biotinyl-Phe-oxazolone = experiment: self-aminoacylation, catalytic enhancement (BFO) (fold over background); higher = more active; k-Seq, kA / k0A0; sequences stand for … in GGGAAUGGAUCCACAUCUACGAAUUC…UUCACUGCAGACUUGACGAAGCUG
Outline: as §1

biotinyl-Leu-oxazolone = experiment: self-aminoacylation, catalytic enhancement (BLO) (fold over background); higher = more active; k-Seq, kA / k0A0; sequences stand for … in GGGAAUGGAUCCACAUCUACGAAUUC…UUCACUGCAGACUUGACGAAGCUG
Outline: as §1

biotinyl-Val-oxazolone = experiment: self-aminoacylation, catalytic enhancement (BVO) (fold over background); higher = more active; k-Seq, kA / k0A0; sequences stand for … in GGGAAUGGAUCCACAUCUACGAAUUC…UUCACUGCAGACUUGACGAAGCUG
Outline: as §1

biotinyl-Ile-oxazolone = experiment: self-aminoacylation, catalytic enhancement (BIO) (fold over background); higher = more active; k-Seq, kA / k0A0; sequences stand for … in GGGAAUGGAUCCACAUCUACGAAUUC…UUCACUGCAGACUUGACGAAGCUG
Outline: as §1

Sequence	self-aminoacylation (biotinyl-Met-oxazolone)	self-aminoacylation (biotinyl-Trp-oxazolone)	self-aminoacylation (biotinyl-Phe-oxazolone)	self-aminoacylation (biotinyl-Leu-oxazolone)	self-aminoacylation (biotinyl-Val-oxazolone)	self-aminoacylation (biotinyl-Ile-oxazolone)
ACUCACGUAGGUCAUCGGGUG [Fam2.2 aminoacylation ribozyme variant]	3.04	3.88	32.9	4.27	3.73	2.89
ACUCACUUAGGUCAUCGGGUG [Fam2.2 aminoacylation ribozyme variant]	5.78	7.25	49.6	7.98	5.12	4.73
ACUCAGCUAGGUCAUCGGGUG [Fam2.2 aminoacylation ribozyme variant]	4.79	7.25	30.7	4.79	4.84	4.07
ACUCCCCUGGUCAUCGAGUGA [Fam2.1 aminoacylation ribozyme variant]	6.39	6.48	42.7	6.71	3.69	3.18
AGAACCCUGGUCAUCGAGUGA [Fam2.1 aminoacylation ribozyme variant]	57.5	56.9	354	58.5	21.2	19.6
AGGUUGGCUAAUAGUCGCAAG [Fam3.1 aminoacylation ribozyme variant]	1.97	2.29	2.19	1.88	1.7	1.74
AGGUUUGCGAAUAGUCGCAAG [Fam3.1 aminoacylation ribozyme variant]	2.24	3.06	7.75	1.82	1.75	1.63
AGGUUUGCUAAUAGUCGGAAG [Fam3.1 aminoacylation ribozyme variant]	1.24	3.12	12.2	1.02	0.944	1.22
AGGUUUGCUAAUAGUCUCAAG [Fam3.1 aminoacylation ribozyme variant]	1.36	2.89	9.24	1.22	1.22	1.17
AGGUUUGCUAAUAGUUGCAAG [Fam3.1 aminoacylation ribozyme variant]	0.863	0.893	1.44	0.994	0.924	1.17
AGGUUUGCUAAUCGUCGCAAG [Fam3.1 aminoacylation ribozyme variant]	1.44	1.98	2.43	1.45	1.34	1.42
AGUACCCUGGUAAUCGAGUGA [Fam2.1 aminoacylation ribozyme variant]	7.78	8.92	47.6	8.28	3.23	3.21
AGUACCCUGGUCAUCGAGAGA [Fam2.1 aminoacylation ribozyme variant]	0.888	0.788	1.36	1.14	0.901	0.994
AGUACCCUGGUCAUCGAGUGA [Fam2.1 aminoacylation ribozyme variant]	13.2	13.6	28.7	12.8	6.48	6.11
AGUACCCUGGUCGUCGAGUGA [Fam2.1 aminoacylation ribozyme variant]	1.05	1.54	8.09	1.53	1.24	1.37
AGUACCCUGGUUAUCGAGUGA [Fam2.1 aminoacylation ribozyme variant]	7.87	9.24	37.4	9.55	4.26	3.63
AGUCACCCAGGUCAUCGGGUG [Fam2.2 aminoacylation ribozyme variant]	4.56	4.54	57.4	4.72	4.29	5.28
AGUCACCGAGGUCAUCGGGUG [Fam2.2 aminoacylation ribozyme variant]	5.09	5.81	32.8	4.81	4.46	4.06
AGUCACCUAAGUCAUCGGGUG [Fam2.2 aminoacylation ribozyme variant]	6.86	6.74	69.3	6.89	4.5	4.94
AGUCACCUAGAUCAUCGGGUG [Fam2.2 aminoacylation ribozyme variant]	3.33	4.5	17.5	3.5	3.06	3.96
AGUCACCUAGGUCAACGGGUG [Fam2.2 aminoacylation ribozyme variant]	2.25	3.02	9.17	3.22	2.08	2.57
AGUCACCUAGGUCAUCGGGAG [Fam2.2 aminoacylation ribozyme variant]	1.93	2.56	1.38	1.74	1.76	1.65
AGUCACCUAGGUCAUCGGGCG [Fam2.2 aminoacylation ribozyme variant]	5.28	5.95	25.5	4.87	4.05	4.56
AGUCACCUAGGUCAUCGGGGG [Fam2.2 aminoacylation ribozyme variant]	3.3	3.68	17.5	3.14	2.9	3.13
AGUCACCUAGGUCAUCGGUUG [Fam2.2 aminoacylation ribozyme variant]	1.99	1.82	10.1	2.12	1.71	1.83
AGUCACCUAGGUCGUCGGGUG [Fam2.2 aminoacylation ribozyme variant]	2.28	2.71	12.9	4.29	2.43	2.48

Sequence	self-aminoacylation (biotinyl-Met-oxazolone)	self-aminoacylation (biotinyl-Trp-oxazolone)	self-aminoacylation (biotinyl-Phe-oxazolone)	self-aminoacylation (biotinyl-Leu-oxazolone)	self-aminoacylation (biotinyl-Val-oxazolone)	self-aminoacylation (biotinyl-Ile-oxazolone)
AGUCACCUAGGUGAUCGGGUG [Fam2.2 aminoacylation ribozyme variant]	4.24	6.05	24.3	5.45	4.38	4.34
AGUCUCCUAGGUCAUCGGGUG [Fam2.2 aminoacylation ribozyme variant]	9.95	9.36	58.7	12.9	6.91	5.63
AGUUCCCUGGUCAUCGAGUGA [Fam2.1 aminoacylation ribozyme variant]	7.95	10.9	43.9	9.8	5	4.54
AGUUUUGCUAAUAGUCGCAAG [Fam3.1 aminoacylation ribozyme variant]	2.35	3.48	4.55	2.61	2.1	2.4
AUAAACCUGGUCAUCGAGUGA [Fam2.1 aminoacylation ribozyme variant]	7.78	9.62	11.4	8.44	4.1	4.13
AUAACACUGGUCAUCGAGUGA [Fam2.1 aminoacylation ribozyme variant]	4.84	6.89	14.7	4.62	3.06	2.83
AUAACCCCGGUCAUCGAGUGA [Fam2.1 aminoacylation ribozyme variant]	7.41	6.89	32.9	7.29	3.32	3.75
AUAACCCUGGUCAUCAAGUGA [Fam2.1 aminoacylation ribozyme variant]	2.3	2.39	2.73	2.24	1.27	1.45
AUAACCCUGGUCAUCGAGUGG [Fam2.1 aminoacylation ribozyme variant]	8.46	6.21	20.8	7.76	3.38	3.4
AUAACCCUGGUCAUCGAGUUA [Fam2.1 aminoacylation ribozyme variant]	2.5	1.12	4.86	2.86	1.34	1.7
AUAACCCUGGUCAUCGCGUGA [Fam2.1 aminoacylation ribozyme variant]	16	18.7	103	18.2	7.96	6.85
AUAACCCUGGUCAUCGGGUGA [Fam2.1 aminoacylation ribozyme variant]	31.3	35.3	183	35.6	13.4	12.1
AUAACCCUGGUCAUGGAGUGA [Fam2.1 aminoacylation ribozyme variant]	4.2	4.89	14.6	4.08	2.48	2.6
AUAACCGUGGUCAUCGAGUGA [Fam2.1 aminoacylation ribozyme variant]	5.06	6.26	25.1	5.49	2.85	2.64
AUAAGCCUGGUCAUCGAGUGA [Fam2.1 aminoacylation ribozyme variant]	6.25	9.48	29.4	7.06	4.25	4.71
AUAAUCCUGGUCAUCGAGUGA [Fam2.1 aminoacylation ribozyme variant]	7.24	7.96	9.11	6.95	3.48	3.72
AUACAACUAGGUCAUCGGGUG [Fam2.2 aminoacylation ribozyme variant]	5.2	5.27	34.4	6.09	3.22	3.32
AUACACAUAGGUCAUCGGGUG [Fam2.2 aminoacylation ribozyme variant]	5.61	6.66	40.3	6.21	3.83	3.69
AUACACCUAGGCCAUCGGGUG [Fam2.2 aminoacylation ribozyme variant]	2.42	3.66	12.9	3.51	2.32	2.73
AUACACCUAGGUCAUCCGGUG [Fam2.2 aminoacylation ribozyme variant]	3.91	5.38	30.6	6.81	3.14	3.5
AUACACCUAGGUCAUCGGGUC [Fam2.2 aminoacylation ribozyme variant]	1.31	1.18	7.44	1.57	1.29	1.08
AUACACCUAGGUCAUUGGGUG [Fam2.2 aminoacylation ribozyme variant]	2.36	3.17	13.3	2.14	2.24	2.02
AUACACCUAGGUCCUCGGGUG [Fam2.2 aminoacylation ribozyme variant]	2.71	3.71	21.8	3.48	3.57	3.44
AUACACCUAGGUCUUCGGGUG [Fam2.2 aminoacylation ribozyme variant]	2.71	2.64	23.2	3.72	3.04	2.7
AUACACCUAGUUCAUCGGGUG [Fam2.2 aminoacylation ribozyme variant]	1.73	3.48	4.89	1.78	2.19	2.33
